Laboratory results taken from patent US20200399344A1 (SHATTUCK LABS, published 2020).
Several values for one entry are separate records, joined by “and”; a condition that tells them apart may be missing. Equal values may be shown once.

T1: mCD28, plate-bound (mouse, UniProt P31041 20-149, limits assumed)
T1 sequence (looked up): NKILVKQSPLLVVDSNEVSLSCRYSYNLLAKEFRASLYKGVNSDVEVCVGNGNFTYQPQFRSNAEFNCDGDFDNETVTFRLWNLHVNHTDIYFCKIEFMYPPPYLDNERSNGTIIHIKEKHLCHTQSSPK

T2: recombinant human 2B4 protein (rh2B4-His) (human, UniProt Q9BZW8-2 22-221, limits assumed)
T2 construct: also called recombinant 2B4-His protein; not shown: His tag
T2 sequence (looked up): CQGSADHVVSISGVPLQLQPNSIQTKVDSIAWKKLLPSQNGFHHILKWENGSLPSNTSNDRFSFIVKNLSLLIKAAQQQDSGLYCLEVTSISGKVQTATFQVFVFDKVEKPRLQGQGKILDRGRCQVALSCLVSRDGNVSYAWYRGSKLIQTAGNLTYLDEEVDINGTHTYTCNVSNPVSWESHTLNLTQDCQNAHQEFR

T3: recombinant human CD2 protein (rhCD2-His) (human, UniProt P06729 25-209)
T3 construct: also called recombinant CD2 protein; not shown: His tag
T3 sequence (looked up): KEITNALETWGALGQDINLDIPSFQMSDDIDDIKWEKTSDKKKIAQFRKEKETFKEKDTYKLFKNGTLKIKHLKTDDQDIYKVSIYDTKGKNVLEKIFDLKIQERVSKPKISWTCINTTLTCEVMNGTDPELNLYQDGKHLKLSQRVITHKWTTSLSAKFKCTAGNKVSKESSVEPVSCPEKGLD

T4: recombinant human 2B4-Fc fusion protein (rh2B4-Fc) (human, UniProt Q9BZW8-2 22-221, limits assumed)
T4 construct: not shown: Fc
T4 sequence (looked up): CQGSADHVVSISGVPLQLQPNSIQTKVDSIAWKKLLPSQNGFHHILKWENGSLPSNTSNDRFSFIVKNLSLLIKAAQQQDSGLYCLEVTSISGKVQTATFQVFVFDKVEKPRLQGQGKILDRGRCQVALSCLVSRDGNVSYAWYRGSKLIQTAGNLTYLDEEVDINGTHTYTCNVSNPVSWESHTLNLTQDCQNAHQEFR


What was measured:
[1] = biological target: T5, HLA class I histocompatibility antigen, alpha chain E (HLA-E), plate-bound recombinant protein (human, UniProt P13747 22-305, limits assumed); experiment: ELISA (single-sided): coat hHLA-E (NOVUS), detect Anti-mFc-HRP (Jax)
T5 construct: no tag named there; also called recombinant HLA-E protein

[2] = biological target: T6, anti-mFc IgG antibody (plate-bound); experiment: Fc ELISA: coat Anti-mFc (Jax), detect Anti-mFc-HRP (Jax)
T6 construct: also called anti-Fc antibody
From the text: A mouse whole IgG was used to generate a standard curve.

mCTLA-4, plate-bound = mCTLA-4, plate-bound (mouse, UniProt P09793 36-162, limits assumed); experiment: ELISA (single-sided): coat mCTLA-4-Fc (Acro), detect Anti-mFc-HRP (Jax)
[3] = biological target: T7, mTGFβ1, recombinant, plate-bound (mouse, UniProt P04202 279-390, limits assumed); experiment: ELISA: coat mTGFB1 (R+D 7666-MB), detection Anti-mFc-HRP
T7 construct: also called recombinant TGFβ1 protein
Procedure: TGFβ1 is a ligand of TGFBR2. To understand whether the TGFBR2 part of the TGFBR2-Fc-NKG2A chimeric protein can bind TGFβ1, ELISA-based assays were performed. Briefly, recombinant TGFβ1 protein was coated on plates and increasing amounts of the TGFBR2-Fc-NKG2A chimeric protein was added to the plates for capture by the plate-bound recombinant TGFβ1 protein. The chimeric protein bound to the recombinant TGFβ1 protein was detected using an anti-mFc HRP.

mCD28, plate-bound = biological target: T1, mCD28, plate-bound; experiment: ELISA (single-sided): coat mCD28-Fc (Acro), detect Anti-mFc-HRP (Jax)
[4] = biological target: T2, recombinant human 2B4 protein …; experiment: ELISA: coat rh2B4-His (Sino 10042-H08H), detection Anti-mFc-HRP for mCD80
Procedure: (§1) Increasing amounts of the indicated chimeric proteins or rhCD48-Fc were added and detected using an anti-mFc-HRP (for mCD80-Fc-NKG2A) or anti-hFc-HRP (for rest of the proteins).
(§2) CD48 is the ligand for 2B4. To understand whether the CD48 parts of the hCD48-Fc-NKG2A chimeric protein can bind 2B4, ELISA-based assays were performed. Briefly, recombinant human 2B4 protein (rh2B4-His) was coated on plates and increasing amounts of the hCD48-Fc-NKG2A and mCD80-Fc-NKG2A chimeric proteins and recombinant human CD48-Fc (rhCD48-Fc) protein was added to the plates for capture by the plate-bound recombinant 2B4 protein. The hCD48-Fc-NKG2A chimeric protein and recombinant human CD48-Fc (rhCD48-Fc) protein bound to the recombinant 2B4 protein was detected using an anti-human Fc HRP. The mCD80-Fc-NKG2A chimeric protein, which was used as a negative control, bound to the recombinant 2B4 protein was detected using an anti-mouse Fc HRP.

[5] = biological target: T3, recombinant human CD2 protein …; experiment: ELISA: coat rhCD2-His (Acro CD2-H5226), detection Anti-mFc-HRP for mCD80
Procedure: (§3) Recombinant human CD2 (rhCD2) protein was coated on plates. Increasing amounts of the indicated chimeric proteins or Recombinant human CD58-Fc fusion protein (rhCD58-Fc) were added and detected using an anti-mFc-HRP (for mCD80-Fc-NKG2A) or anti-hFc-HRP (for rest of the proteins).
(§4) CD2 is a transmembrane protein in T cells that binds to its ligand CD58 on APC in humans and on CD48 in rodents. To understand whether the CD48 and CD58 parts of the hCD48-Fc-NKG2A, and hCD58-Fc-NKG2A chimeric protein can bind CD2, ELISA-based assays were performed. Briefly, recombinant human CD2 protein (rhCD2-His) was coated on plates and increasing amounts of the hCD48-Fc-NKG2A, hCD58-Fc-NKG2A, and mCD80-Fc-NKG2A chimeric proteins and recombinant hCD58-Fc protein was added to the plates for capture by the plate-bound recombinant CD2 protein. The […] chimeric protein served as a negative control and recombinant hCD58-Fc protein served as a positive control. The hCD48-Fc-NKG2A and hCD58-Fc-NKG2A, chimeric proteins and recombinant hCD58-Fc protein bound to the recombinant CD2 protein was detected using an anti-human Fc HRP. The mCD80-Fc-NKG2A chimeric protein bound to the recombinant CD2 protein was detected using an anti-mouse Fc HRP.

[6] = biological target: T4, recombinant human 2B4-Fc fusion protein …; experiment: dual ELISA; coat rh2B4-Fc (for SL-048), CD48-Fc-NKG2a titrated, detection HLA-E-His, Anti 6x-His-HRP; the signal needs both bindings
Procedure: (i) recombinant human 2B4-Fc fusion protein (rh2B4-Fc) was coated on plates. Increasing amounts of the hCD48-Fc-NKG2A or hCD86-Fc-NKG2A chimeric proteins were added and detected using HLA-E-His. The hCD86-Fc-NKG2A chimeric protein was used as a negative control (Negative control #1). […] (ii) recombinant human CD2-Fc fusion protein (rhCD2-Fc) was coated on plates. Increasing amounts of the hCD58-Fc-NKG2A or hCD86-Fc-NKG2A chimeric proteins were added and detected using HLA-E-His. The hCD86-Fc-NKG2A chimeric protein was used as a negative control (Negative control #2).
To understand whether the hCD48-Fc-NKG2A chimeric protein can bind simultaneously to both 2B4 and HLA-E, the following ELISA experiment was carried out. Briefly, and recombinant 2B4 (rh2B4-Fc) protein was coated on plates. Increasing amounts of the hCD48-Fc-NKG2A chimeric protein was added to the plates for capture by the recombinant human 2B4-Fc (rh2B4-Fc) protein. Further, recombinant HLA-E (HLA-E-His) protein was added to the plate for capture by hCD48-Fc-NKG2A chimeric proteins. The binding of the HLA-E-His protein was detected using an anti-His 6× HRP antibody.

[7] = biological target: T8, recombinant HLA-E-His protein (human, UniProt P13747 22-305, limits assumed); experiment: ELISA: the chimeric protein is the titrated coat (1:3), detection HLA-E-His (Novus NBP2-47435PEP), HRP Anti-6x-His-HRP
T8 construct: also called recombinant HLA-E (HLA-E-His); not shown: His tag
Procedure: In a complementary experiment, increasing amounts of the hCD48-Fc-NKG2A, hCD58-Fc-NKG2A, and hCD80-Fc-NKG2A chimeric proteins or a negative control protein was coated on plates. Recombinant HLA-E-His protein was added to the plates for capture by the plate-bound chimeric proteins or the negative control protein. The captured HLA-E-His protein was detected using an anti-6×-His-HRP antibody.

[8] = biological target: T2, recombinant human 2B4 protein …; experiment: ELISA: coat h2B4-His (Sino #10042-H08H), detection printed as Anti-mFc-HRP (Jax 115-036-003)
Procedure: (§5) CD48 binds 2B4 (CD244), a member of the signaling lymphocyte-activation molecule (SLAM) family. To understand whether the CD48 part of the hCD48-Fc-NKG2A chimeric protein can bind […], ELISA-based assays were performed. Briefly, recombinant 2B4-His protein was coated on plates. Human CD28-His protein coated on negative control plates. Increasing amounts of the hCD48-Fc-NKG2A chimeric protein was added to the plates for capture by the plate-bound recombinant 2B4-His protein. […]

[9] = biological target: T2, recombinant human 2B4 protein …; experiment: ELISA: coat rh2B4-His (Sino 10042-H08H), detection Anti-hFc-HRP
Procedure: as §1, §2

[10] = biological target: T9, recombinant human CD28-His (rhCD28-His) (human, UniProt P10747 19-152); experiment: ELISA: coat hCD28-His (negative control coat), detection printed as Anti-mFc-HRP (Jax 115-036-003)
T9 construct: also called Human CD28-His protein; recombinant CD28 protein; not shown: His tag
Procedure: as §5

[11] = biological target: T3, recombinant human CD2 protein …; experiment: ELISA: coat rhCD2-His (Acro CD2-H5226), detection Anti-hFc-HRP
Procedure: as §3, §4

[12] = biological target: T10, anti-human IgG antibody (plate-bound); experiment: ELISA (single sided Fc): coat Anti-Human IgG (H+L) Jax# 109-005-088, detection HRP Goat anti-human FCgamma
T10 construct: also called anti-human Fc antibody
Procedure: In another set of experiments, an anti-human IgG antibody was coated on plates and increasing amounts of the hCD48-Fc-NKG2A, hCD58-Fc-NKG2A, and hCD80-Fc-NKG2A chimeric proteins, and a human IgG antibody were added to the plates for capture by the plate-bound […]. The human IgG antibody was used as a positive control and to generate a standard curve. The binding to the anti-human IgG antibody was detected using an anti-human Fcgamma HRP.

T5 sequence (P13747 22-305 limits assumed): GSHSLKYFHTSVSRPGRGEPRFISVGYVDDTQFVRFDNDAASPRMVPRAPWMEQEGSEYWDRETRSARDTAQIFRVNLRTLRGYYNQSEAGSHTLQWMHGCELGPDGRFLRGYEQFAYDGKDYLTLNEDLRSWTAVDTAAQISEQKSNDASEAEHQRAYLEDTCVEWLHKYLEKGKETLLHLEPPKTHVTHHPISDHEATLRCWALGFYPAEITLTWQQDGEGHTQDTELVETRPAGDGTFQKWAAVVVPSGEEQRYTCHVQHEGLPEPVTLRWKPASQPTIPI
T8 sequence (P13747 22-305 limits assumed): as above
T9 sequence (P10747 19-152 limits assumed): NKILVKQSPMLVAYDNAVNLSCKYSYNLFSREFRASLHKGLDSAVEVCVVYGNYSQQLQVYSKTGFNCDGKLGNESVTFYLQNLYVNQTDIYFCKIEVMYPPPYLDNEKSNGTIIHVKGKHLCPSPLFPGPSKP
T7 sequence (P04202 279-390 limits assumed): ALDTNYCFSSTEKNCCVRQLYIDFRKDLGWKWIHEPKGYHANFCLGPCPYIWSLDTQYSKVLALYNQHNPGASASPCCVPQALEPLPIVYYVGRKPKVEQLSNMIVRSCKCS

| Binder | EC50 [1] | EC50 [2] | EC50 (mCTLA-4, plate-bound) | binding result [3] | EC50 (mCD28, plate-bound) | binding result [4] | binding result [5] | EC50 (read off the curve) [6] | EC50 (read off the curve) [7] | EC50 (read off the curve) [8] | EC50 (read off the curve) [9] | binding result [10] | binding result [11] | EC50 (read off the curve) [12] |
| --- | --- | --- | --- | --- | --- | --- | --- | --- | --- | --- | --- | --- | --- | --- |
| mouse CD80-Fc-NKG2A chimeric protein (Fc fusion, also called mCD80-Fc-NKG2A; mCD80-Fc-NKG2a) VDEQLSKSVKDKVLLPCRYNSPHEDESEDRIYWQKHDKVVLSVIAGKLKVWPEYKNRTLYDNTTYSLIILGLVLSDRGTYSCVVQKKERGTYEVKHLALVKLSIKADFSTPNITESGNPSADTKRITCFASGGFPKPRFSWLENGRELPGINTTISQDPESELYTISSQLDFNTTRNHTIKCLIKYGDAHVSEDFTWEKPPEDPPDSKNVPRDCGCKPCICTVPEVSSVFIFPPKPKDVLTITLTPKVTCVVVDISKDDPEVQFSWFVDDVEVHTAQTQPREEQFNSTFRSVSELPIMHQDWLNGKEFKCRVNSAAFPAPIEKTISKTKGRPKAPQVYTIPPPKEQMAKDKVSLTCMITDFFPEDITVEWQWNGQPAENYKNTQPIMDTDGSYFVYSKLNVQKSNWEAGNTFTCSVLHEGLHNHHTEKSLSHSPGIIEGRMDTPYTEAKAQINSSMTRTHRDINYTLSSAQPCPHCPKEWISYSHNCYFIGMERKSWNDSLVSCISKNCSLLYIDSEEEQDFLQSLSLISWTGILRKGRGQPWVWKEDSIFKPKIAEILHDECNCAMMSASGLTADNCTTLHPYLCKCKFPI | 247 nM and 140 nM | 2.02 nM and 1.36 nM | 0.958 nM and 0.705 nM | no binding (tested: log[Agonist] about 2.7, ug/ml) | 30.8 nM and 22.6 nM | no binding (tested: log[Agonist] about 2.7, ug/ml) | no binding (tested: log[Agonist] about 2.7, ug/ml) |  |  |  |  |  |  |  |
| human CD48-Fc-NKG2A chimeric protein (Fc fusion, also called hCD48-Fc-NKG2A) not shown |  |  |  |  |  |  |  | ~50 µg/mL | ~2 µg/mL | ~2 µg/mL | ~2 µg/mL | no binding (tested: log[Agonist] about 2.7, ug/ml) | binds | ~0.7 µg/mL |
